Test results taken from the DeepSol protein solubility set.

experiment: soluble on expression in E. coli; label from the status in PepcDB or PDB records

| Sequence | soluble on expression in E. coli |
| --- | --- |
| MQVSPHDTSQPKQHAQSLSSASQSEAGKYTDGRETSARWLDDDSIAQRDLWNFIGDELKMGIPDNARIREQKTRYLKNKSYLHDVTLRAEPYMYWIVEQIKQRKMPMELVLLPIVESAFDPSATSSANAAGLWQIIPGTGRNYGLKQNQWYDGRRDVIASTTAALDMMQRLNTMFDGDWLLTVAAYNSGEGRVMQAMKANKAKGKPTNFWALALPRETSIYVPKMLALSDILKNSKKYGVNLPQPNESRALAKVELGQQIELTQAAEMAGLSLNKLKSYNSGYKRNVTAPNGPHYIMVPKAHVEQLKDSLADGDIAAIQPTRLEQTPASQQYKVRSGDTLSAIATRLNVSTKDLQSWNNLRSVGALKVGQTLQVAKASGTNGSITYQVRKGDSLASIAKRHGVNIADVMRWNTVINKNANIQPGDRLTLYVSSNIKPDSLEHHHHHH | soluble |
| MSLSVLKICTKDQKGLIYRISDVIFKYHINIVKNDEFVGEGMFFFRALLEGEFDKEAFIGTLEAMLGQEALIELCEKRKKDIVVFATKESHCLGDLLIKHYSNELEANIKAVISNHNSLKDLVEKFEIPYHFISAENLDRKEQENQILKCLEQYKFDYLVLAKYMRILSPDFVRHFEGKIINIHHSFLPAFIGANPYKQAFERGVKIIGATAHFVNNNLDEGPIITQAVSPVNHEFTWQDMQQAGRNIEKDVLSKALDLAFEDRIFIHNNKTIIFEGHHHHHH | soluble |
| MAVNVYSTSVTSENLSRHDMLAWVNDSLHLNYTKIEQLCSGAAYCQFMDMLFPGCVHLRKVKFQAKLEHEYIHNFKVLQAAFKKMGVDKIIPVEKLVKGKFQDNFEFIQWFKKFFDANYDGKDYNPLLARQGQDVAPPPNPGDQIF | soluble |
| MEDIKIKEIFENIYEVDLGDGLKRIATKSIVKGKKVYDEKIIKIGDEEYRIWNPNKSKLAAAIIKGLKVMPIKRDSKILYLGASAGTTPSHVADIADKGIVYAIEYAPRIMRELLDACAERENIIPILGDANKPQEYANIVEKVDVIYEDVAQPNQAEILIKNAKWFLKKGGYGMIAIKARSIDVTKDPKEIFKEQKEILEAGGFKIVDEVDIEPFEKDHVMFVGIWEGK | soluble |
| MIVRPVTSADLPALIELARSTGTGLTTLPANEQRLQHRVSWAEKAFRGEAERGDADYLFVLEDDAGKVVGISAIAGAVGLREPWYNYRVGLTVSASQELNIHREIPTLFLANDLTGNSELCSLFLHADHRSGLNGKLLSRARFLFIAEFRHLFGDKLIAEMRGMSDEEGRSPFWESLGRHFFKMEFSQADYLTGVGNKAFIAELMPKFPLYTCFLSEEARGVIGRVHPNTEPALAMLKAEGFSYQGYVDIFDAGPAIEAETDKIRAIAESQNLVLAVGTPGDDAEPYLIHNRKREDCRITAAPARAAAGTLVVDPLTAKRLRLSAGASVRAVPLSAQKRG | not soluble |
| STRPVGGTEYSWCRAIDGGTGIAVIALLLSRTPKLQNLQNTLDKLQIYHPTLRSNIRFDASANSFSFVVTSAADSHVEIHPFDSVSTAQIIRDSDDPCADPHRIILEHEMNKNTWINPHRWIKSESRVFIVSLYDLTDDGEQRILTFRLNTAAVDRTAAVTLLREFMKETAADGFGNGPVVAATETAVGLGKAIEELIPSGKGDKPFWARGIDVLGYSLNAFRFSNLNFVDAENSNRRSQLVRLKLDRDQTLKLVAGCKARGLKLWAALASSALIAAYSSKNLPPYQGEKYAVVTLSDCRSILEPPLTSNDFGFYHAGILHTHDLTGEEKLWDLAKRCYDSFTSSKNSNKQFTDMSDLNFLMCKAIENPNLTPSSSLRTAFISIFEDPVIDESPEPELASLGVQDYIGCASIHGVGPSVAVFDALRDGKLDCAFVYPSPLHSREQMDGLIQHMKTILLEGSASSF | soluble |
| MTFEMLYSKIHRATITDANLNYIG | soluble |
| MAHHHHHHMGVGFQSKKLQNFCHSGAGEMCALENCIPRWGSFPCNAPGLTPVYELSSFENVELPLIFQKSNIGDLLASTSDSVGQLNGFQARHSNTEGIKSQVSYTSVALSTTNRENLFGWVDCAALPLCSSSTAGASILLVTLLTRESRGKSCMCILDDLVCQLSNGPFNWGCGGDCHDLISISLPSEPRNHAACPIILPIAKLSRKEIWLREAAPKMDVETIIYEGDNQQHLVDDVANGTNAGSCAVMEAGCRPETALGPENVKYGDNESVTQCEVTVDITPSTEPSARCLHFSECTTPVSSNRSFMEPIPLSNMESKALRCRKFDGTSYEVLRRRAHSDALSLILKKYSEHLERVSQTSGRRGLDAHC | soluble |
| SLVHKKIVVPSATDMATRFTQDSFVFDCLSMYYVIDDPWAENCLAAGVNATNVTFGTEQPWDIVLRDFDSGLEKIERSPYLALATNRQEIDAANKQGKLAVIIGTQGSAMVDLEFHRLRTMHRLGMRYFGLAYTGPTMFADGCGESRNAGLSFAGIELIDACNDLGLILDLSHVGHRSREEAVARSRFPVYTHSNSYALNPNDRNTTDETARAIRAKGGIMGICGLPKTVHPENATLNELLDHADHWVKTIDAAHVGFGLDFVEAYKSDRSTMPAASRLWRTRRPDIFGTVEEFHLQDYPLGIASIKQLPNLTQGLFDRGYAEKEVAGIIGGNWLRHFTEVYG | soluble |
| MAHKKSNRQLIDACRQNFLSHLRLREWRDVHSQLLTVVREHGWRLNEAEATYEQIHLALLTGLLGNLGMKADDDPHYLGARGIKFYLWPGSALAKKAGRWVMAAELVETSRLYARCLAKIEPEWIEKVGAHLLKKSLSEPLEHHHHHH | soluble |
| MAHHHHHHMSRLLKHYGSCKTAFFCCDIQEKFMGRIANSANCVFVANRFAGLHTALGTAHSVYIVTEQYPKGLGATSADIRLPPDAHVFSKKRFAMLVPQVMPLVDLPEVEQVVLWGFETHVCILQTAAALLDMKKKVVIAVDGCGSQSQGDHCTAIQLMQSWSGDGCYISTSESILMQLLKDASDPVFKTIAPLMKQTHPIRI | soluble |
| MQVLNTKSETKQENETMQPPYIQERLKSLNDIETQLCSMLQEASQVTFIFGELKRGNESVKPQFENHVKQFYERLDKSTTQLRKEIQLLDENVGTRLLPINVNKKALGQDTEKMEEQLDLLSAILDPSKSK | soluble |
| MSLTESFSTPKFHISPTGMIMEGAQLHIKCTIQVTHLAQEFPEIIIQKDKAIVAHNRHGNKAVYSVMAMVEHSGNYTCKVESSRISKVSSIVVNITELFSKPELESSFTHLDQGERLNLSCSIPGAPPANFTIQKEDTIVSQTQDFTKIASKSDSGTYICTAGIDKVVKKSNTVQIVVCEMLSQPRISYDAQFEVIKGQTIEVRCESISGTLPISYQLLKTSKVLENSTKNSNDPAVFKDNPTEDVEYQCVADNCHSHAKMLSEVLRVKVIAPVDEVQISILSSKVVESGEDIVLQCAVNEGSGPITYKFYREKEGKPFYQMTSNATQAFWTKQKASKEQEGEYYCTAFNRANHASSVPRSKILTVRVIEGHHHHHH | not soluble |
| MSLKQFSPDKMLNTPFGITAAQLRKMGKTTILTDLDNTLLAWDQLDATDEVINWFTILKEEGIKVMIFSNNNEERVARVAKAIDVPYLARAKKPLGANFRWALKEMDATPEETVMIGDQIMTDIFGGNRQKLTTIFVRPVKQTDGMATKLNRMMESVILKRLAKKNQIKWEESEGHHHHHH | soluble |
| MAHHHHHHMQCSSLKTGCLKLLSQLPEGLQQAGRTAVSAHQRSYCPYSNFAVGAALLHDDGKVTSGCNYETCVYKGTCAEACAIVKANMDGYRTAQAVAIYGRSVLPTAAAAAADATVPPCGFCRQLLAEVADLSGNMNDFLVVLVTFDQEHARLFRLSELLPQPFGPSSIGMDVAALATGEHSRCPGTF | not soluble |
| MEQMRFKPRPFVKPVKFKCKFCLDCCKGRHVYLTLNDIKRLIDAGYDPQDFLTISIEDGKIRFVLSVREWDLGCVFQDPETGLCKVHPHRPLICRIYPFMVSKKPLGIKGEKKFEINGKSFWLYYDENCPGINDEDGDTITPEEILKLGIKFEEELEATDLDGFLKILRSLEHHHHHH | soluble |
| MGSDKIHHHHHHMSSLATLAQPLADGTFQCLACQWRCTLAPGEIGRCHMRIGREEGIELINHGMISGAAIGPVEDHRLWHFFPDTTVLAIGGWGYALPIDQQRGPYGTLPTEPAKQRRLEPQRAADFALERLCRGVVWAFGEPAVNFEYVLALLQLSRAASRYTAIVTSGMLSLEALNELGPYLNGISLDLRGFSDNAYQRLGGISDWRHILRFAEEAQQRWKCHIEITTRIHHGVNDHPDELRDLVEWIKKTLGEETPWHVLPGDAGSETAAATKQARRIGHEGGLQFIYGHEPNQPTRCPSCHATLINRQHGVSRRVGLDGNRCSNCGYATNLYLSIFKVHRT | not soluble |
| MTTEKINLLDFDRKGLRTFFAEELGEKAFRAEQVMKWIYHFGCDDFDQMNNINKQLREKLKAKCEIRAPYVSEAQHSADGTIKWAMRVGDQDVETVYIPEDDRATLCVSSQVGCALECKFCSTAQQGFNRNLRVSEIIGQVWRAAREIGLEKETGRRPITNVVMMGMGEPLLNMKNLIPALEIMLDDLGFGLSKRRVTVSTSGVVSGLEQMIGQIDVALAISLHAPNDKLRSEIMPINDRWNIEAFLEVVRRYIASSNANRGKVTVEYVLLDHVNDGTEHAHELAELLKGTPCKINLIPFNPYPGSPYKKPSNSRIDRFQKTLMQYEHTVTIRKTRGDDIDAACGQLVGDVIDRTKRTKAKQFDGQAIPVKTL | not soluble |
| MAHHHHHHMSGNDLLPLWIGTPQRGVTHDDTADPYTSKVGGQAVYFRLGASTAEQQSAGALSKYFQCPQCKSTAQVSLLCQVYAPLEVYDRVLYILTCAACTRRPRAAASLQGSVPAPALTTGTSKKSGLAAAARSHTSFCFALRSQNFSREHFAELQKQLRAEAQRATEDEKEKAENDAPLFGGGDDDWGDDADDWGTEEGPVKEAKPSPAEPLDDAGDKNGALEKTPNELPEFPLASRGMTVPLKGTLYTSGLPLDLYEEPPPKQTKELSIEEQLAAAKSMYGSSAALDTSGFEEDDEAPEERCVREYMEHMERTPSQCVRWCLGGTPLRTSTTPIGVNGSSLPPPCPACGAVRQFEMQLTAPVVFYLTKDIGEAKNTALHFSNVLVYTCSSNCYNTNSNLPYLPEYVVVEDEL | not soluble |
| MSLQARVAAPVVAKEREELVDRIEGETSAADELEKSVDELRDDVDARRREALEKSGDGDRSDLVGILSGAVEVHGPGVKLVVNDAKDVATGADGQPRGTSGFSDTGRVRDRDMQRVVNGLWESGAEAISVNGQRLTALSAIRAAGDAILVDNRPLVPPYTVLAVGDGERLSRGFQDSADGLYLHALEESYGIRTAISVADDLKLPAAPSVIVRTAQPITEKGTSEGHHHHHH | soluble |
| MGSDKIHHHHHHAQTGASDGSRFGHGEDSIRCLKNISIYTEYVKTNNFKDAYTPWMSVFTEAPKAQVSTYTNGAKILRALIAGEKDAAKQKQYFNELMKVHDQRIQYLDDLNKLVKRDATKGSIIGMKAHDYFTMGGQDMNEAYNMFKEAIELEKENSDYFVLQEFMDAAARKMKSDEAYKEQFIQDYLFASGVADGALKAATKENDKKLLKVAKDNIDAFFINSGVATCDNLQAIYAPKVEQNKTNLDYLKQVISVMQMLNCTEQEAYFAASEAAHAIEPTAETAVGCGYMYYKKGDMDKCIDYFDQAINLEQDPLKKADYAYKTAAILFSKKQLSKAKQYALKSISLDGNNGKPYILIANMYASSPNWSDEAALNKCTYFAVIDKLQKAKSVDPSVAEEANKLIGTYAAHTPKDADLFFLSLKKGDSVTIGGWIGETTTIR | not soluble |
| MARKNAVKDNLEQIQHQSYSELQELLSEANSMLADSAAFAGDKADSARARIGALLEKANDALGKGGSAVAERSRHAVDATESYIGANPWQTVAITTAVGLLAGFLLGRRS | not soluble |
